Assay results as given in patent publication US20260275304A1, “METHODS AND COMPOSITIONS FOR GLYPHOSATE TOLERANCE IN PLANTS” (Monsanto Technology LLC, priority 2023, published 2026).
Residue numbers refer to the chain shown, from its start. In names and notes the source's numbering stands.

B1: TIPS-P126S-M217L-K296R: maize EPSPS variant, SEQ ID NO:10 (protein)
chain: AGAEEIVLQPIKEISGTVKLPGSKSLSNRILLLAALSEGTTVVDNLLNSEDVHYMLGALRTLGLSVEADKAAKRAVVVGCGGKFPVEDSKEEVQLFLGNAGIAMRSLTAAVTAAGGNATYVLDGVSRMRERPIGDLVVGLKQLGADVDCFLGTDCPPVRVNGIGGLPGGKVKLSGSISSQYLSALLMAAPLALGDVEIEIIDKLISIPYVEMTLRLLERFGVKAEHSDSWDRFYIKGGQKYKSPKNAYVEGDASSASYFLAGAAITGGTVTVEGCGTTSLQGDVKFAEVLEMMGARVTWTETSVTVTGPPREPFGRKHLKAIDVNMNKMPDVAMTLAVVALFADGPTAIRDVASWRVKETERMVAIRTELTKLGASVEEGPDYCIITPPEKLNVTAIDTYDDHRMAMAFSLAACAEVPVAIRDPGCTRKTFPDYFDVLSTFVKN
modifications: Zea mays
B2: P126S-K296R: maize EPSPS variant, SEQ ID NO:14 (protein)
chain: B1 chain with I102T, S106P, L217M
modifications: Zea mays

Columns and labels:
[1] = test system: wild-type S. cerevisiae BY4741; experiment: Growth of wild-type yeast in glyphosate; format: cell-based, Saccharomyces cerevisiae; conditions: 5 mM and 10 mM glyphosate
Text: Previous research has primarily focused on E. coli as a chassis for selecting improved EPSP synthases. The present example details the development of S. cerevisiae as a model eukaryotic system for glyphosate resistance, thus requiring synthetically addicting this cell to the expression and activity of EPSPS in an effort to create a growth-based selection scheme. Yeast have previously been reported to be resistant to glyphosate.

transgenic maize plants [2] = experiment: Greenhouse glyphosate spray test on hybrid (hemizygous) transgenic maize; format: in vivo, Zea mays
Protocol: To further evaluate the performance of EPSPS variants for glyphosate tolerance, transgenic maize plants comprising a single copy of the transgene encoding the EPSPS variants TIPS-P126S-M217L-K296R or TIPS-P126S-K296R were grown to maturity. Homozygous transgenic plants were crossed with an inbred line to produce hybrid seeds.
Plants from the hybrid seeds (hemizygous for the transgenes) of two independent transformation events for each of the two variants were grown in the greenhouse for glyphosate spray test. Roundup® PowerMax3, a commercial formulation of glyphosate, was applied at the third leaf stage at two rates: 1120 gram/hectare (1× the field rate) and 2240 gram/hectare (2× the field rate). The controls included an untreated untransformed control without glyphosate treatment, an untransformed control sprayed with glyphosate, and a TIPS positive control both sprayed with glyphosate. Glyphosate herbicide injury (plant stunting, chlorosis, necrosis, malformation, and death) was assessed by visual inspection of the plants 18 days after herbicide treatment. Herbicide injury rate was presented on a scale of 0 to 100 with “0” being no visible crop injury and “100” being complete crop injury or death.

[3] = test system: S. cerevisiae strain sKR-024; experiment: Growth of synthetic yeast strain sKR-024 expressing EPSPS variants with or without glyphosate; format: cell-based, Saccharomyces cerevisiae; conditions: for glyphosate tolerance in synthetic yeast host: mutants isolated from directed evolution
Protocol: EPSPS variants were re-cloned into a clean p416-Core1p backbone and transformed into strain sKR-024 as described above. Colonies were then picked in triplicate into YSC-Ura-Leu and outgrown for 2 days at 30° C. Cultures were then diluted back to OD 0.001 in yeast minimal media (YMM) containing varying amounts of glyphosate as indicated. Growth rate measurements were then obtained using an Infinite M200 PRO microplate reader (Tecan, Männedorf, Switzerland) with incubation at 30° C. for 72-120 hours depending on growth rate of selected variants.
To determine if this system could further corroborate observations from previous literature, the well-studied EPSPS mutants T102I and P106S, and the combined double mutant TIPS (T102I-P106S) were generated and complemented into this yeast system. These mutations were reported to result in varying degrees of glyphosate resistance.
Having established low copy number and weak promoter expression of EPSPS variants, it was sought to recharacterize phenotypes under field conditions that are used in planta. […] It has been reported previously that under standard glyphosate foliar application, 0.3 mM or more of glyphosate (gly) can accumulate in a plant's root nodules and meristems. […] These trends support reported literature of mutants P106S and TIPS grown in various plant hosts. As a result, the present synthetic yeast model system closely resembles in planta observations and thus can be used to select for dual-trait EPSPS variants aimed at both enzymatic efficiency and glyphosate resistance.
Select mutants isolated from the final directed evolution campaign with the improved selection strategy were further evaluated in assorted glyphosate concentrations to determine growth characteristics. Mutants isolated from an EPSPS background were evaluated in media containing 0 mM and 0.25 mM glyphosate with the latter being the concentration at which wild-type EPSPS cannot grow after 100 hours. […] The non-glyphosate mono selection highlighted in blue represents mutations resulting from 5 subcultures in 0 mM glyphosate. The low glyphosate dual selection highlighted in light green represents mutants resulting from an additional subculture into 0.5 mM glyphosate. Lastly, the high glyphosate dual selection highlighted in dark green represent mutations isolated after subcultures in increasing levels of glyphosate, up to 10 mM.

transgenic maize plants [4] = experiment: Maize transformation with glyphosate selection, plantlet recovery and quality checks; format: in vivo, Zea mays; conditions: for Number of young plants passing quality control checks: in vivo; for Number of plantlets generated: under glyphosate selection, same amount of starting material
Text: Maize was used as a model system to test the functionality of the EPSPS variants because of detailed previous characterization of glyphosate tolerance in maize and a suitable transgenic plant generation protocol that relies on glyphosate. Plant transformation vectors were generated in which the native maize EPSPS sequence was used, which includes the native gene promoter elements, the native introns and exons and the native 3′ untranslated region and introduced mutations that corresponded to each of the selected amino acid changes. The native sequence was used to mimic as closely as possible how the selected EPSPS variants would perform if the variants were introduced directly in the genome without the help of strong expression elements. The following variants were selected for testing in a transgenic maize system: TIPS (as a control); TIPS-P126S-M217L-K296R; TIPS-P126S-K296R; T102I-P126S-K296R (where only the T102I change is present); P106S-P126S-K296R (where only the P106S change is present); and P126S-K296R (where neither of the TIPS changes are present).
Transgenic maize plants that expressed each of the six EPSPS variants were generated to determine if the variants conferred glyphosate tolerance to plants. The full DNA sequence encoding TIPS EPSPS (SEQ ID NO:1) was cloned from maize genomic DNA. In this sequence, the promoter and 5′ UTR are nucleotides 1:2556; the chloroplast transit peptide sequence is nucleotides 2557:2742; EXON 1 is nucleotides 2743:2856; INTRON 1 is nucleotides 2857:3384; EXON 2 is nucleotides 3385:3626; INTRON 2 is nucleotides 3627:3725; EXON 3 is nucleotides 3726:3879; INTRON 3 is nucleotides 3880:4152; EXON 4 is nucleotides 4153:4367; INTRON 4 is nucleotides 4368:4877; EXON 5 is nucleotides 4878:4995; INTRON 5 is nucleotides 4996:5155; EXON 6 is nucleotides 5156:5366; INTRON 6 is nucleotides 5367:5446; EXON 7 is nucleotides 5447:5508; INTRON 7 is nucleotides 5509:5617; EXON 8 is nucleotides 5618:5836; and the 3′ UTR is nucleotides 5837:6368. Mutations were then introduced into the EPSPS coding sequence in order to produce each of the six EPSPS variants to be tested. These mutated full genomic DNA sequences were then each cloned as a single expression cassette into plant transformation vectors.
Agrobacterium tumefaciens-mediated plant transformation was performed using methods known in the art. Glyphosate selection was used to select for transgenic events containing the transgene of interest and further screened for only those EPSPS variants that provided effective glyphosate tolerance in a plant cell. While all six EPSPS variants began the transformation process with the same amount of starting maize cellular material, there were differences in the number of small plantlets recovered that were capable of being transplanted to greenhouse soil media (Table 4). Transgenic events were further analyzed to determine transgene copy number. Healthy events with single copy of the transgene of interest were grown in the greenhouse soil media. Only three of the six EPSPS variants had more than one plant surviving. Up to twenty-five of these developing R0 plants were transplanted to larger pots and allowed to grow to maturity for seed collection in the greenhouse.

Molecule	growth inhibition [1]	tolerance to glyphosate (transgenic maize plants [2]; 2× field rate)	Average Injury At 1120 g/ha (transgenic maize plants [2]; Roundup PowerMax3, 1× field rate, 18 days after treatment, scale of 0 to 100)	Average Injury At 2240 g/ha (transgenic maize plants [2]; Roundup PowerMax3, 2× field rate, 18 days after treatment, scale of 0 to 100)	tolerance to glyphosate (transgenic maize plants [2]; equivalent 1× field dose)	growth in yeast minimal media without glyphosate ([3]; 0 mM glyphosate)	glyphosate tolerance in synthetic yeast host [3]	glyphosate tolerance in synthetic yeast host ([3]; listed as TIPS P126S/M217L/K296R)	Number of young plants passing quality control checks (transgenic maize plants [4])	Number of plantlets generated (transgenic maize plants [4])
O=C(O)CNCP(=O)(O)O [glyphosate, N-phosphonomethylglycine]	slight growth inhibition									
B1		full tolerance	0	0	excellent tolerance	high growth in non-glyphosate	high glyphosate tolerance	high glyphosate tolerance (even higher than TIPS)	13	92
B2									1	11
